Reference: the Human Domainome abundance scans (Beltran et al. 2025)
± gives the uncertainty stated by the source.

B1: MEF2-activating motif and SAP domain-containing transcriptional regulator, residues 170 to 204; numbered along this chain, Q6ZN01 (parent)
chain: LKLEELTVSELRQQLRLRGLPVSGTKSMLLERMRG

Variants of: B1
Assay: abundance fitness (aPCA) (normalised: wild type 0, dead -1); higher = more abundant; growth selection in yeast, the domain comes from the species named
Details: Homo sapiens

Abundance fitness, by site and new letter:
M28: Q 0.067 ± 0.32; T -0.081 ± 0.07; S -0.36 ± 0.096; F -0.616 ± 0.23; W -0.839 ± 0.29; N -0.402 ± 0.19; H -0.003 ± 0.14; A 0.022 ± 0.095; I -0.015 ± 0.098
L20: S -0.731 ± 0.35; G -0.669 ± 0.067; Q -0.587 ± 0.27; T -0.879 ± 0.13; M -0.005 ± 0.22; W -0.626 ± 0.089; V -0.575 ± 0.071; F -0.329 ± 0.14; K -0.555 ± 0.11; Y -0.284 ± 0.11; E -0.192 ± 0.055; I -0.646 ± 0.25
L17: W -0.307 ± 0.089; V -0.054 ± 0.14; R -0.155 ± 0.056; C -0.102 ± 0.16; P -0.988 ± 0.15; S -0.249 ± 0.089; F -0.271 ± 0.15; Q -0.032 ± 0.093; T -0.081 ± 0.11; M -0.087 ± 0.062; G -0.238 ± 0.069
R32: W -0.554 ± 0.074; C -0.611 ± 0.13; L -0.485 ± 0.098; A -0.459 ± 0.11; I -0.507 ± 0.12; E -0.219 ± 0.1; S -0.483 ± 0.11; Q -0.232 ± 0.1; M -0.369 ± 0.23; G -0.326 ± 0.067
L30: R -0.283 ± 0.07; T -0.257 ± 0.068; M -0.179 ± 0.097; Q 0.004 ± 0.084; P -0.507 ± 0.066; K -0.23 ± 0.11; I 0.394 ± 0.25; D -0.376 ± 0.13; W -0.456 ± 0.17; S -0.601 ± 0.081
L1: W -0.045 ± 0.11; I 0.108 ± 0.073; N 0.092 ± 0.45; S -0.12 ± 0.068; Y 0.02 ± 0.24; F -0.19 ± 0.13; G -0.364 ± 0.21; V -0.134 ± 0.11; R -0.262 ± 0.14; E 0.136 ± 0.086
R12: G -0.593 ± 0.076; M -0.32 ± 0.13; K -0.072 ± 0.09; C -0.387 ± 0.086; Q -0.016 ± 0.097; N -0.961 ± 0.49; P -0.602 ± 0.096; T -0.199 ± 0.11; S -0.29 ± 0.087; Y -0.495 ± 0.21; A -0.361 ± 0.11
G24: Q -0.935 ± 0.16; V -0.828 ± 0.069; P -0.829 ± 0.095; S -0.817 ± 0.13; R -0.867 ± 0.1; L -1.01 ± 0.26; W -0.41 ± 0.21
E4: H -0.046 ± 0.14; Y -0.804 ± 0.18; C -0.518 ± 0.14; N -0.017 ± 0.21; A -0.667 ± 0.12; P -0.394 ± 0.29; S -0.23 ± 0.11; V -1.08 ± 0.16; M -0.41 ± 0.071; Q -0.317 ± 0.16; L -0.919 ± 0.085
L29: K -0.31 ± 0.17; P -0.909 ± 0.22; G -0.455 ± 0.053; D -0.51 ± 0.072; V -0.842 ± 0.074; S -0.545 ± 0.061; I -0.749 ± 0.19; N -0.683 ± 0.3; Y -0.469 ± 0.19; M -0.338 ± 0.21
Q13: M -0.134 ± 0.097; E -0.1 ± 0.1; L -0.174 ± 0.061; F -0.101 ± 0.21; I -0.036 ± 0.099; G -0.251 ± 0.061
S9: E 0.181 ± 0.074; R -0.09 ± 0.05; C -0.347 ± 0.13; A 0.016 ± 0.054; D 0.173 ± 0.074; G -0.111 ± 0.057; M 0.122 ± 0.1; P -0.291 ± 0.2; L -0.275 ± 0.1; K 0.084 ± 0.12; V -0.121 ± 0.056; Q 0.164 ± 0.069
K2: C -0.136 ± 0.07; R -0.042 ± 0.1; W -0.159 ± 0.14; D -0.496 ± 0.26; L -0.444 ± 0.08
G35: R -0.436 ± 0.11; N -0.161 ± 0.28; L -0.074 ± 0.081; A -0.117 ± 0.13; S -0.262 ± 0.36; F -0.295 ± 0.11
G19: C -0.559 ± 0.092; W -0.863 ± 0.092; T -0.683 ± 0.11; P -0.558 ± 0.29; Q -0.402 ± 0.1; I -0.417 ± 0.19; E -0.261 ± 0.072; H -0.211 ± 0.16; R -0.337 ± 0.066; S -0.34 ± 0.065
E31: V -1.16 ± 0.23; C -0.745 ± 0.46; G -0.279 ± 0.061; Q -0.227 ± 0.06; S -0.27 ± 0.089; N -0.238 ± 0.11; W -0.755 ± 0.18; T -0.348 ± 0.096
T7: C -0.594 ± 0.17; N -0.249 ± 0.4; A -0.519 ± 0.18; L -0.768 ± 0.099; K -0.184 ± 0.097; V -1.29 ± 0.13; M -0.598 ± 0.16; D -0.111 ± 0.2; H -0.48 ± 0.098; G -0.199 ± 0.054
L15: C 0.149 ± 0.065; T -0.43 ± 0.089; M -0.185 ± 0.16; S -0.215 ± 0.091; Q -0.339 ± 0.096; R -0.712 ± 0.063; V -0.37 ± 0.073; Y -0.661 ± 0.078; P -0.6 ± 0.12; G -0.391 ± 0.058
P21: H -0.727 ± 0.22; Q -0.317 ± 0.058; C -0.347 ± 0.096; F -1.08 ± 0.26; R -0.39 ± 0.048; E -0.036 ± 0.068; N -0.303 ± 0.13; A -0.184 ± 0.075; K -0.494 ± 0.082; V -0.335 ± 0.086; D -0.094 ± 0.059; W -0.854 ± 0.066; S -0.129 ± 0.061
Q14: T -0.45 ± 0.16; H -0.192 ± 0.095; Y -0.326 ± 0.25; W -0.141 ± 0.084; K -0.175 ± 0.35; R -0.174 ± 0.053; D -0.551 ± 0.07; C -0.313 ± 0.11; V -0.222 ± 0.061; N -0.441 ± 0.14
V22: R -0.375 ± 0.087; P -0.701 ± 0.2; D -0.046 ± 0.096; W -0.595 ± 0.12; L -0.209 ± 0.076; A 0.052 ± 0.1; Q -0.108 ± 0.068; C -0.255 ± 0.13; E 0.025 ± 0.17; S -0.168 ± 0.078
K26: S -0.697 ± 0.1; M -0.725 ± 0.33; C -0.761 ± 0.15; A -0.057 ± 0.064; D -0.467 ± 0.32; R 0.048 ± 0.069; Q -0.221 ± 0.069; W -0.361 ± 0.15; T -0.42 ± 0.097
R16: P -0.96 ± 0.13; E 0.001 ± 0.078; Y -0.613 ± 0.12; D -0.331 ± 0.09; S -0.095 ± 0.066; W -0.129 ± 0.058; C -0.107 ± 0.08; A 0.04 ± 0.062; M -0.07 ± 0.062
T25: S 0.004 ± 0.069; K -0.204 ± 0.1; L -0.581 ± 0.075; C -0.43 ± 0.13; F -0.608 ± 0.34; R -0.497 ± 0.054; V -0.435 ± 0.073; Q -0.441 ± 0.15; P -0.29 ± 0.068; M -0.517 ± 0.2; H -0.295 ± 0.18
R18: K -0.119 ± 0.068; L 0.074 ± 0.057; V -0.128 ± 0.095; M 0.126 ± 0.071; W -0.147 ± 0.085; Q 0.03 ± 0.24; N -0.299 ± 0.32; P -0.336 ± 0.39; G -0.523 ± 0.097
M33: W -0.538 ± 0.11; C -0.235 ± 0.077; T -0.525 ± 0.099; E -0.146 ± 0.091; G -0.343 ± 0.078
L11: Y -0.497 ± 0.091; M -0.331 ± 0.32; A -0.678 ± 0.11; V -0.59 ± 0.074; C -1.03 ± 0.095; K -0.623 ± 0.13; E -0.864 ± 0.13; R -0.565 ± 0.097; I -0.206 ± 0.11; W -0.897 ± 0.11
S27: G -0.108 ± 0.066; V -0.349 ± 0.084; A -0.1 ± 0.064; Y -0.725 ± 0.35; C -0.455 ± 0.12; R -0.154 ± 0.064; Q 0.38 ± 0.41; L -0.281 ± 0.063; E 0.081 ± 0.05; F -1.15 ± 0.27
L3: A -0.275 ± 0.16; V -0.272 ± 0.097; Y -0.556 ± 0.16; R -0.416 ± 0.064; S -0.22 ± 0.088; E -0.249 ± 0.1; G -0.304 ± 0.05; Q -0.296 ± 0.089; D -0.098 ± 0.12; C -1.03 ± 0.15
V8: R -0.309 ± 0.063; E 0.026 ± 0.072; C -0.486 ± 0.49; M -0.206 ± 0.17; Q -0.648 ± 0.074; G -0.429 ± 0.06; S -0.28 ± 0.068; Y -0.576 ± 0.15; A 0.142 ± 0.093; D -0.38 ± 0.073; K -0.066 ± 0.11; P -0.39 ± 0.091
L6: R -0.458 ± 0.064; W -0.175 ± 0.072; V -0.399 ± 0.078; G -0.533 ± 0.059; A -0.314 ± 0.067; T -0.632 ± 0.11; N -0.166 ± 0.11; Q -0.236 ± 0.07; E -0.369 ± 0.11
S23: W -0.883 ± 0.37; Y -0.106 ± 0.14; C -0.274 ± 0.16; D 0.233 ± 0.14; G -0.007 ± 0.071; P -0.838 ± 0.096; L -0.349 ± 0.068; A -0.103 ± 0.062; N -0.02 ± 0.12; R -0.384 ± 0.076; E 0.025 ± 0.068; M -0.222 ± 0.065
E5: A -0.218 ± 0.069; R -0.239 ± 0.084; W -0.776 ± 0.14; Y -0.424 ± 0.11; V -0.329 ± 0.088; C -0.183 ± 0.18; Q -0.306 ± 0.1; S -0.188 ± 0.074
E10: D -0.402 ± 0.15; Q -0.216 ± 0.14; K -0.354 ± 0.14; T -0.782 ± 0.17; F -0.895 ± 0.39; W -0.728 ± 0.11; C -0.678 ± 0.085; M -0.608 ± 0.11; R -0.552 ± 0.072; G -0.509 ± 0.12
R34: W -0.556 ± 0.071; E -0.089 ± 0.093; D -0.396 ± 0.2; T -0.045 ± 0.079; C -0.021 ± 0.21; Q 0.156 ± 0.068; V -0.244 ± 0.1; A -0.118 ± 0.068; Y -0.316 ± 0.08
